Data from patent publication CN108503707A (ZHEJIANG ACAD MEDICAL SCIENCES, dated 2018).

Target: T1, 弓形虫重组SAG1蛋白(表面膜抗原1) (Toxoplasma gondii, UniProt P13664 48-306, limits assumed)
T1 construct: The vector tag (pET28a, Ni-NTA purified) is not described; In the BLI programme the loading step is called biotinylated antigen, but the sensor is APS; also called SAG1-m; SAG1重组抗原
T1 sequence (looked up): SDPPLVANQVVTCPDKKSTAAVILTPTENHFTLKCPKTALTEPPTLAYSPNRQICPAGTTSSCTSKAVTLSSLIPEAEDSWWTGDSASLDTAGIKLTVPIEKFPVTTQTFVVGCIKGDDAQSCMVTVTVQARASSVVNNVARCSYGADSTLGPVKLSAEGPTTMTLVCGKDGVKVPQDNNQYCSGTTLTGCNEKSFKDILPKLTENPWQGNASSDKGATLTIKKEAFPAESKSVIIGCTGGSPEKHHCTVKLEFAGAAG
Experiment: BLI (ForteBio Octet Red), SAG1 on APS sensor, nanobody at 6.25-100 nM

B1: 1号克隆株抗SAG1纳米抗体 (VHH)
VHH: HVQLVESGGGSVQAGGSLKLSCTASGYTSNNNCMAWYRQAPGKEPEGVAGIDSEGTTRYADSVKGRFTISKDNAKNTLYLQMNSLKPEDTGMYYCGAGPDRPARCQYDVWGQGTQVTVSS
notes: Tags or fusion parts from the vectors are not described; also called SAG1-1; 一号克隆株抗SAG1纳米抗体
In the case of B1, the Kd is reported as 1.66 nM.
